Laboratory results reported in US20170002084A1.

What was measured:
[1] = target: Canine CD20 (canine) (UniProt Q3C2E2); test: cell-based or functional assay
[2] = target: Canine CD20 (canine) (UniProt Q3C2E2); test: FACS on CHO cells expressing recombinant canine CD20

Canine CD20 (canine), sequence (Q3C2E2 other isoform, or with tags, fused parts or gaps): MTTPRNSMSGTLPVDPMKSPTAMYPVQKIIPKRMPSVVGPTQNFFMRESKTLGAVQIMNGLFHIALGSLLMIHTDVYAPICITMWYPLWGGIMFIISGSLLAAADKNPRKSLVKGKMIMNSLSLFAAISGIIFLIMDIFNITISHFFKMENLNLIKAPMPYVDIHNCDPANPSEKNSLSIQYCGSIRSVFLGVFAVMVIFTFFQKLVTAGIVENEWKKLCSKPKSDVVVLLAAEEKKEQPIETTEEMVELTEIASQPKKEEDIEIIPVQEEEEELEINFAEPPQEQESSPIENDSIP

Reduction (%) of cell proliferation of lymphoma cells [1]: 17.5% | Kd [2]: 77.4 nM
B1: anti-canine CD20 antibody CD20-4 (antibody, part only; not given: light chain, V domains shown, part only)
VH: EVQLQQSVAELVRPGASVTLSCKASGYTFTDYEMHWVKQTPVHGLEWIGEIDPETGGTAYNQKFKGKAILTADKSSSTAYMELRSLTSEDSAVYYCTEYAMDYWGQGTSVTVSS
